Laboratory results: US20230120736A1, “ANTI-CD98 ANTIBODIES AND ANTIBODY DRUG CONJUGATES” (AbbVie Inc., priority 2016, published 2023)
Residue numbers refer to the chain shown, from its start.

T1: human CD98 (Homo sapiens, UniProt P08195)
T1 sequence (P08195 1-630 isoform P08195-1): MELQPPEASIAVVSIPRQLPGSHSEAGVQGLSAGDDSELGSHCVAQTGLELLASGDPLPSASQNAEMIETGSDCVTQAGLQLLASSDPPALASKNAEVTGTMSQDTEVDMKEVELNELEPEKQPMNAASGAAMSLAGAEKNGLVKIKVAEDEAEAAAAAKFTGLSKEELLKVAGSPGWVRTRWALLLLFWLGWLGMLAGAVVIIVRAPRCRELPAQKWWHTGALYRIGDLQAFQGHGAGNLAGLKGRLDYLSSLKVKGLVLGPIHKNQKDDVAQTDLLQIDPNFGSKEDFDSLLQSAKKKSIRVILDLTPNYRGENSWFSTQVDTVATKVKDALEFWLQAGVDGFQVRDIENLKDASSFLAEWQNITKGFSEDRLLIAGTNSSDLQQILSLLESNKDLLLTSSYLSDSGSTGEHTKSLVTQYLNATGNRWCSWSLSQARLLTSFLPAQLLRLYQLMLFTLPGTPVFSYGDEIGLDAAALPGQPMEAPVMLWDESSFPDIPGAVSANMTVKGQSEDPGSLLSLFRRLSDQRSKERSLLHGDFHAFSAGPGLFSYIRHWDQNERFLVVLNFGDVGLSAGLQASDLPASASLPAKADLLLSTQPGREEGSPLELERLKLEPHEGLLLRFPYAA

T2: human CD98 ECD (Homo sapiens, UniProt P08195)
T2 construct: Human CD98 ECD with C-terminal His-tag
T2 sequence (P08195 with tags, fused parts or gaps): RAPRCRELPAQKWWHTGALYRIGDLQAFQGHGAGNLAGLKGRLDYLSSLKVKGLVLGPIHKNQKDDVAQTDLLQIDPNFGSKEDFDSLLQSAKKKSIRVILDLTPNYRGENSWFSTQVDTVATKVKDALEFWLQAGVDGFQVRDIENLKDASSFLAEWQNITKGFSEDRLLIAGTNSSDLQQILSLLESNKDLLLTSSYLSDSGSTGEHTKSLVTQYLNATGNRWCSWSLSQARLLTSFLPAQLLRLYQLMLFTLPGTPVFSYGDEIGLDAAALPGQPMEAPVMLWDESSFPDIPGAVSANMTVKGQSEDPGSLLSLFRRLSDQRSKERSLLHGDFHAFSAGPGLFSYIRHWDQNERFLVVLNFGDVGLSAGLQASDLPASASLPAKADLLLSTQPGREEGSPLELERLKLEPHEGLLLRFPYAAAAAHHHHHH

B1: huAb15v1 (antibody, V domains shown)
VH: EVQLVESGGGVVQPGRSLRLSCAASGFTFSDYTMAWVRQAPGKGLEWVATIIYSGRGTYYRDAVKGRFTISRDNSKSTLYLQMNSLRAEDTAVYYCARQSDHTYYYWGYFDYWGQGTMVTVSS
VL: DIVMTQSPDSLAVSLGERATINCKSSQSLLFSGNQKNYLAWYQQKPGQSPKLLIYWASTRQSGVPDRFSGSGSGTDFTLTIRSLQAEDVAIYYCQQYYDVPYTFGQGTKLEIK
B2: huAb15v5 (antibody, V domains shown)
VH: B1 VH with S54T, H102D
VL: B1 VL with D99S, V100S
B3: huAb15v3 (antibody, V domains shown)
VH: B1 VH with H102D
VL: B1 VL with D99G, V100S
B4: huAb15v4 (antibody, V domains shown)
VH: B1 VH with S54T, H102D
VL: B1 VL
B5: huAb15v2 (antibody, V domains shown)
VH: B1 VH with H102D
VL: B1 VL
B6: huAb15v6 (antibody, V domains shown)
VH: B1 VH with S54D, G55A, H102D
VL: B1 VL with D99S, V100S
B7: huAb15v7 (antibody, V domains shown)
VH: B1 VH with S54D, G55A, H102D
VL: B1 VL with D99G, V100S
B8: huAb101: "heavy chain variable sequence of huAb101 is provided in SEQ ID NO: 106"; "light chain variable sequence ... in SEQ ID NO: 107" (antibody, V domains shown)
VH: EVQLVESGGGLVKPGGSLRLSCATSGFTFIDYYMSWVRQAPGKGLEWLGFIRNKANRYTTEYSASVKGRFTISRDNSKSILYLQMNSLKTEDTAVYYCTRDRPAWFVYWGQGTLVTVSS
VL: DIVMTQTPLSLPVTPGEPASISCKSSQSLLYSSNQKNYLAWYLQKPGQSPQLLIYWASTRESGVPDRFSGSGSGTDFTLKISRVEAEDVGVYYCQQYYSYPYTFGGGTKVEIK
B9: huAb103: "heavy chain variable sequence of huAb103 is provided in SEQ ID NO: 109"; "light chain variable sequence ... in SEQ ID NO: 107" (antibody, V domains shown)
VH: B8 VH with N56Y, R57G
VL: B8 VL

Legend:
human CD98 = biological target: T1, human CD98; assay: Binding of humanized antibodies to human CD98
[1] = test system: cynomolgus monkey CD98 ECD; assay: Biacore surface plasmon resonance binding kinetics (anti-Fc capture); details: cyCD98 ECD
Experimental: (§1) The binding kinetics of these purified mouse and rat monoclonal anti-CD98 antibodies for purified recombinant CD98 protein (extracellular domain, ECD) were determined by surface plasmon resonance-based measurements made on Biacore T100/T200 instruments (GE Healthcare, Piscataway, N.J.) at 25° C. using an anti-Fc capture assay approach. Binding kinetic measurements were made in the assay buffer HBS-EP+: 10 mM Hepes, pH 7.4, 150 mM NaCl, 3 mM EDTA, 0.05% Tween 20). For example, approximately 8000 RU of anti-Fc (species specific) polyclonal antibody (Thermo Fisher Scientific Inc., Rockford, Ill.) diluted in 10 mM sodium acetate (pH 4.5) was directly immobilized across a CM5 research grade biosensor chip using a standard amine coupling kit according to manufacturer's instructions and procedures at 25 μg/ml. Unreacted moieties on the biosensor surface were blocked with ethanolamine. The test antibody to be captured as a ligand was diluted in running buffer to ˜0.5 μg/mL and injected over anti-Fc surface at a flow rate of 10 μL/min. CD98 binding and dissociation were observed under a continuous flow rate of 80 μL/min. Human and cynomolgus monkey CD98 ECDs, both with a C-terminal His-tag, are used for this study (Table 3). After each cycle the anti-Fc capture surface was regenerated using 10 mM Glycine-HCl, pH 1.5. During the assay, all measurements were referenced against the capture surface alone (i.e., with no captured test antibody) and buffer-only injections (no antigen) were used for double referencing. For kinetic analysis, rate equations derived from the 1:1 Langmuir binding model were fitted simultaneously, globally and with mass transfer term included to multiple referenced antigen binding curves using Biacore T100/T200 Evaluation software.
(§2) The in vitro binding activities of the recombinant anti-CD98 chimeric mAbs were measured against both recombinant CD98 extracellular domain proteins (ECDs) and CD98-expressing cells. Briefly, binding kinetics of anti-CD98 chimera mAbs for human and cynomolgus CD98 ECDs were determined by surface plasmon resonance-based measurements as described in Example 4. Table 10 reported the association and dissociation rate constants for CD98 binding, ka (M^−1 s^−1) and kd (s^−1), and the equilibrium dissociation constant KD (M) of the interaction between antibodies and the target antigen. Binding of anti-CD98 chimera mAbs for CD98 on cell surface was evaluated by flow cytometry against CHO-K1 cell line stably transfected to express human CD98 and 3T12 cell line stably transfected to express cynomolgus monkey CD98.
(§3) The binding kinetics of the recombinant anti-CD98 chimeric antibodies for purified recombinant CD98 protein (extracellular domain, ECD) were determined by surface plasmon resonance-based measurements, as described in the Example 4.

human CD98 ECD = biological target: T2, human CD98 ECD; assay: as above; details: huCD98 ECD
Experimental: as §1, §2, §3

[2] = Conjugation of anti-CD98 mAbs with Bcl-xL inhibitor synthons (precipitation, DAR, recovery, aggregation)
Experimental: Method A. A solution of BOND-BREAKER tris(2-carboxyethyl)phosphine (TCEP) solution (10 mM, 0.017 mL) was added to a solution of antibody (10 mg/mL, […]) preheated to 37° C. The reaction mixture was kept at 37° C. for 1 hour. The solution of reduced antibody was added to a solution of synthon (3.3 mM, 0.160 mL in DMSO) and gently mixed for 30 minutes. The reaction solution was loaded onto a desalting column (PD10, washed with DPBS 3x before use), followed by DPBS (1.6 mL) and eluted with additional DPBS (3 mL). The purified ADC solution was filtered through a 0.2 micron, low protein-binding 13 mm syringe-filter and stored at 4° C.
Method E. A solution of BOND-BREAKER tris(2-carboxyethyl)phosphine (TCEP) solution (10 mM, 0.017 mL) was added to the solution of antibody (10 mg/mL, 1 mL) at room temperature. The reaction mixture was heated to 37° C. for 75 minutes. The solution of reduced antibody cooled to room temperature and was added to a solution of synthon (10 mM, 0.040 mL in DMSO) followed by addition of boric buffer (0.1 mL, 1M, pH 8). The reaction solution was let to stand for 3 days at room temperature, loaded onto a desalting column (PD10, washed with DPBS 3×5 mL before use), followed by DPBS (1.6 mL) and eluted with additional DPBS (3 mL). The purified ADC solution was filtered through a 0.2 micron, low protein-binding 13 mm syringe-filter and stored at 4° C.

[3] = humanized variants of chAb3 and chAb15
[4] = mAb conjugated with Bcl-xL inhibitor synthon CZ, Method A
[5] = humanized framework engineered antibodies
[6] = conjugation with synthon CZ, Method E
[7] = conjugation with synthon TX, Method E

Chain of cynomolgus monkey CD98 ECD (as listed by the source): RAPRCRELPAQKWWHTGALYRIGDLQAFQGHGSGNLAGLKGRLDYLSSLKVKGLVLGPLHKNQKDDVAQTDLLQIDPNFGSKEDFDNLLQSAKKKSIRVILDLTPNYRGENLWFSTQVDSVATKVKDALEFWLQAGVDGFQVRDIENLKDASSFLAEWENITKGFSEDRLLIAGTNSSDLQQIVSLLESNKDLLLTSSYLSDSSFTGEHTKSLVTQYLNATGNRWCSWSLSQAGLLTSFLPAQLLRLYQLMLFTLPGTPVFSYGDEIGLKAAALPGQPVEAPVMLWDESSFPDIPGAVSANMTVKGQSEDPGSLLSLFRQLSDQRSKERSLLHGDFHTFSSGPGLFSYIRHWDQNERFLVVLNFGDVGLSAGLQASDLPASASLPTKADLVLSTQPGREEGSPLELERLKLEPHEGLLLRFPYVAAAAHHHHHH

Molecule	binding to human CD98 (human CD98; [3])	ka [1] [M⁻¹ s⁻¹]	kd [1] [s⁻¹]	ka (human CD98 ECD) [M⁻¹ s⁻¹]	kd (human CD98 ECD) [s⁻¹]	Key observation for ADC solution during and after conjugation [2, 4]	DAR by MS [2, 4]	binding to human CD98 (human CD98; [5])	% Aggregates by SEC [2, 6] [%]	DAR by MS [2, 6]	% Aggregates by SEC [2, 7] [%]	DAR by MS [2, 7]
B1	maintained binding	26000	2.6e-05	53000	2.3e-05	Precipitated during conjugation; inefficient conjugation						
B2	maintained binding	17000	0.00018	41000	0.00013	Precipitated during conjugation; inefficient conjugation	1.0					
B3	maintained binding	18000	0.00014	44000	8.5e-05	Precipitated during conjugation; inefficient conjugation	1.2					
B4	maintained binding	20000	5e-05	35000	2.8e-05	Precipitated during conjugation; inefficient conjugation	1.9					
B5	maintained binding	21000	4.8e-05	42000	4.6e-05	Precipitated during conjugation; inefficient conjugation	2.1					
B6	maintained binding	14000	0.00049	38000	0.00026	Precipitated during conjugation; inefficient conjugation	2.0					
B7	maintained binding	14000	0.00043	35000	0.00021	Precipitated during conjugation; inefficient conjugation	2.2					
B8		30000	0.00067	290000	0.0018			maintained binding	1.8	4.5	0.3	3.5
B9		31000	0.00044	180000	0.00059			maintained binding	15.9	4.4	0.9	3.8
